Among the data in article PMC9770967, “Native holdup (nHU) to measure binding affinities from cell extracts” (Science Advances, 2022) are pKapp (negative logarithm of the apparent dissociation constant) values, retold here.

This experiment deals with biotinylated PDZ-binding motif (PBM) peptide of diacylglycerol kinase zeta (DGKZ). Description: native holdup (nHU) with Western blot; titration; biotinylated DGKZ PBM peptide on streptavidin resin as bait, mixed with biotin-saturated control resin at constant resin/analyte ratio; total Jurkat extract (2 mg/ml) as analyte; 4°C, 2 hours; prey depletion in the supernatant read by Western blot; apparent constants; three replicates.

Consider “endogenous full-length Scribble (SCRIB) (from UniProt Q14160 1-1655) (natural protein)”, for which the pKapp (negative logarithm of the apparent dissociation constant) came to 6.4 pKapp.
